The data set deals with the molecule itself. The experiment in a line: crystal structure; His-GsePNPase crystallized without ligands, 25 mg/ml in 50 mM HEPES pH 7.6, 100 mM NaCl, sitting drop, 291 K; three chains in the asymmetric unit, the hexamer generated by crystallographic symmetry; 1.72 Å.

The term stoichiometry N denotes a count of units in the complex or per binding partner.

B1: N-terminally His-tagged purine nucleoside phosphorylase from Geobacillus stearothermophilus (enzyme)
chain: MHHHHHHSSGLVPRGSGMKETAAAKFERQHMDSPDLGTGSENLYFQGAMMSVHIGAKAGEIAERILLPGDPLRAKYIAETFLEGAVCYNEVRGMLGFTGTYKGERISVQGTGMGVPSISIYVNELIQSYGVKTLIRVGTCGAIQPDVRVRDVILAMSASTDSNMNRLIFRGRDYAPTADFHLLRTAYEVGVEKGLALKVGNVFTADMFYNDEPNWETWARYGVLAVEMETAALYTLAAKFGCRALSVLTVSDHILTGEETTAEERQMTFNEMIEVALEAAIRNGA
notes: hexameric purine nucleoside phosphorylase of Geobacillus stearothermophilus, KEGG GT50_19015, the open reading frame; the printed residue numbers (His4, Arg43, Arg87, Asp203) count from the first Met of this part; The whole construct as printed has 285 residues; The tag was not cleaved in the crystallized protein; also called His-GsePNPase; GsePNPase; source: E. coli BL21 (DE3), purified (IMAC on …)
In the case of B1, the “stoichiometry N” value came to 6.

For the origin of these results see article PMC9716568, “The structure of His-tagged Geobacillus stearothermophilus purine nucleoside phosphorylase reveals a ‘spanner in the works’” (Acta Crystallographica. Section F, Structural Biology …, 2022).
